Laboratory results reported in the supplement of paper PMC11246515.
± gives the standard deviation of the averaged measurements.

Test: total protein half-life in vivo (active degradation + dilution); higher = more stable protein
[1] = E. coli NCM3722 delta-lon, growth: N-lim chemostat, doubling time 6 h
[2] = E. coli NCM3722 delta-clpP delta-lon delta-hslV, growth: N-lim chemostat, doubling time 6 h
[3] = E. coli NCM3722 delta-clpP, growth: N-lim chemostat, doubling time 6 h
[4] = E. coli NCM3722 delta-hslV, growth: N-lim chemostat, doubling time 6 h
[5] = wild type E. coli NCM3722, growth: C-lim chemostat, doubling time 3 h
[6] = wild type E. coli NCM3722, growth: C-lim chemostat, doubling time 12 h
[7] = wild type E. coli NCM3722, growth: N-lim chemostat, doubling time 6 h
[8] = wild type E. coli NCM3722, growth: N-lim chemostat, doubling time 12 h
[9] = wild type E. coli NCM3722, growth: P-lim chemostat, doubling time 6 h
[10] = wild type E. coli NCM3722, growth: P-lim chemostat, doubling time 12 h
[11] = E. coli NCM3722 delta-smpB, growth: N-lim chemostat, doubling time 6 h
[12] = wild type E. coli NCM3722, growth: C-lim chemostat, doubling time 6 h

Row | Sequence | total protein half-life in vivo [1] | total protein half-life in vivo [2] | total protein half-life in vivo [3] | total protein half-life in vivo [4] | total protein half-life in vivo [5] | total protein half-life in vivo [6] | total protein half-life in vivo [7] | total protein half-life in vivo [8] | total protein half-life in vivo [9] | total protein half-life in vivo [10] | total protein half-life in vivo [11] | total protein half-life in vivo [12]
1 | MLEDLRANSWSLRPCCMVLAYRVAHFCSVWRKKNVLNNLWAAPLLVLYRIITECFFGYEIQAAATIGRRFTIHHGYAVVINKNVVAGDDFTIRHGVTIGNRGADNMACPHIGNGVELGANVIILGDITLGNNVTVGAGSVVLDSVPDNALVVGEKARVKVIK [P0ACC9] | 7.07 ± 0.2 h | – | – | – | – | – | – | – | – | – | – | –
2 | MNYSLKQLKVFVTVAQEKSFSRAGERIGLSQSAVSHSVKELENHTGVRLLDRTTREVVLTDAGQQLALRLERLLDELNSTLRDTGRMGQQLSGKVRVAASQTISAHLIPQCIAESHRRYPDIQFVLHDRPQQWVMESIRQGDVDFGIVIDPGPVGDLQCEAILSEPFFLLCHRDSALAVEDYVPWQALQGAKLVLQDYASGSRPLIDAALARNGIQANIVQEIGHPATLFPMVAAGIGISILPALALPLPEGSPLVVKRITPVVERQLMLVRRKNRSLSTAAEALWDVVRDQGNALMAGREGDPLYQI [P0ACR7] | – | 6.06 ± 0.61 h | 4.84 ± 0.076 h | 5.19 ± 0.28 h | 2.84 h | 12.5 ± 1.6 h | 4.85 ± 0.15 h | 9.2 ± 0.89 h | 3.88 h | 6.14 ± 1.9 h | – | –
3 | MSKLLDRFRYFKQKGETFADGHGQVMHSNRDWEDSYRQRWQFDKIVRSTHGVNCTGSCSWKIYVKNGLVTWEIQQTDYPRTRPDLPNHEPRGCPRGASYSWYLYSANRLKYPLIRKRLIELWREALKQHSDPVLAWASIMNDPQKCLSYKQVRGRGGFIRSNWQELNQLIAAANVWTIKTYGPDRVAGFSPIPAMSMVSYAAGTRYLSLLGGTCLSFYDWYCDLPPASPMTWGEQTDVPESADWYNSSYIIAWGSNVPQTRTPDAHFFTEVRYKGTKTIAITPDYSEVAKLCDQWLAPKQGTDSALAMAMGHVILKEFHLDNPSDYFINYCRRYSDMPMLVMLEPRDDGSYVPGRMIRASDLVDGLGESNNPQWKTVAVNTAGELVVPNGSIGFRWGEKGKWNLESIAAGTETELSLTLLGQHDAVAGVAFPYFGGIENPHFRSVKHNPVLVRQLPVKNLTLVDGNTCPVVSVYDLVLANYGLDRGLEDENSAKDYAEIKPYTPAWGEQITGVPRQYIETIAREFADTAHKTHGRSMIILGAGVNHWYHMDMNYRGMINMLIFCGCVGQSGGGWAHYVGQEKLRPQTGWLPLAFALDWNRPPRQMNSTSFFYNHSSQWRYEKVSAQELLSPLADASKYSGHLIDFNVRAERMGWLPSAPQLGRNPLGIKAEADKAGLSPTEFTAQALKSGDLRMACEQPDSSSNHPRNLFVWRSNLLGSSGKGHEYMQKYLLGTESGIQGEELGASDGIKPEEVEWQTAAIEGKLDLLVTLDFRMSSTCLFSDIVLPTATWYEKDDMNTSDMHPFIHPLSAAVDPAWESRSDWEIYKGIAKAFSQVCVGHLGKETDVVLQPLLHDSPAELSQPCEVLDWRKGECDLIPGKTAPNIVAVERDYPATYERFTSLGPLMDKLGNGGKGISWNTQDEIDFLGKLNYTKRDGPAQGRPLIDTAIDASEVILALAPETNGHVAVKAWQALGEITGREHTHLALHKEDEKIRFRDIQAQPRKIISSPTWSGLESDHVSYNAGYTNVHELIPWRTLSGRQQLYQDHPWMRAFGESLVAYRPPIDTRSVSEMRQIPPNGFPEKALNFLTPHQKWGIHSTYSENLLMLTLSRGGPIVWISETDARELTIVDNDWVEVFNANGALTARAVVSQRVPPGMTMMYHAQERIMNIPGSEVTGMRGGIHNSVTRVCPKPTHMIGGYAQLAWGFNYYGTVGSNRDEFIMIRKMKNVNWLDDEGRDQVQEAKK | 6.11 ± 1.5 h | 6.1 ± 1 h | 5.33 ± 0.2 h | 6.53 ± 0.28 h | 2.8 ± 0.2 h | 11.5 ± 1.3 h | 5.956 ± 0.043 h | 12.43 ± 0.018 h | 5.7 ± 0.32 h | 11.4 ± 0.43 h | 5.8 ± 0.67 h | 6.25 ± 1.3 h
4 | MIDYEVLRFIWWLLVGVLLIGFAVTDGFDMGVGMLTRFLGRNDTERRIMINSIAPHWDGNQVWLITAGGALFAAWPMVYAAAFSGFYVAMILVLASLFFRPVGFDYRSKIEETRWRNMWDWGIFIGSFVPPLVIGVAFGNLLQGVPFNVDEYLRLYYTGNFFQLLNPFGLLAGVVSVGMIITQGATYLQMRTVGELHLRTRATAQVAALVTLVCFALAGVWVMYGIDGYVVKSTMDHYAASNPLNKEVVREAGAWLVNFNNTPILWAIPALGVVLPLLTILTARMDKAAWAFVFSSLTLACIILTAGIAMFPFVMPSSTMMNASLTMWDATSSQLTLNVMTWVAVVLVPIILLYTAWCYWKMFGRITKEDIERNTHSLY [P0ABK2] | 5.91 h | > 8 h | – | 6.72 h | – | – | 6.61 h | 12.2 ± 1.9 h | 6.45 ± 0.17 h | 12.9 ± 0.13 h | 5.4 h | 6.31 h
5 | MTGKKRSASSSRWLQEHFSDKYVQQAQKKGLRSRAWFKLDEIQQSDKLFKPGMTVVDLGAAPGGWSQYVVTQIGGKGRIIACDLLPMDPIVGVDFLQGDFRDELVMKALLERVGDSKVQVVMSDMAPNMSGTPAVDIPRAMYLVELALEMCRDVLAPGGSFVVKVFQGEGFDEYLREIRSLFTKVKVRKPDSSRARSREVYIVATGRKP [P0C0R7] | 4.55 ± 0.18 h | 5.17 ± 0.46 h | 3.946 ± 0.035 h | 4.42 ± 0.32 h | 2.81 ± 0.034 h | 11.4 ± 1.5 h | 4.45 ± 0.14 h | 7.904 ± 0.057 h | 5.13 ± 0.14 h | 8.89 ± 0.018 h | 4.52 ± 0.28 h | 5.87 ± 0.41 h
6 | MAQFVYTMHRVGKVVPPKRHILKNISLSFFPGAKIGVLGLNGAGKSTLLRIMAGIDKDIEGEARPQPDIKIGYLPQEPQLNPEHTVRESIEEAVSEVVNALKRLDEVYALYADPDADFDKLAAEQGRLEEIIQAHDGHNLNVQLERAADALRLPDWDAKIANLSGGERRRVALCRLLLEKPDMLLLDEPTNHLDAESVAWLERFLHDFEGTVVAITHDRYFLDNVAGWILELDRGEGIPWEGNYSSWLEQKDQRLAQEASQEAARRKSIEKELEWVRQGTKGRQSKGKARLARFEELNSTEYQKRNETNELFIPPGPRLGDKVLEVSNLRKSYGDRLLIDDLSFSIPKGAIVGIIGPNGAGKSTLFRMISGQEQPDSGTITLGETVKLASVDQFRDSMDNSKTVWEEVSGGLDIMKIGNTEMPSRAYVGRFNFKGVDQGKRVGELSGGERGRLHLAKLLQVGGNMLLLDEPTNDLDIETLRALENALLEFPGCAMVISHDRWFLDRIATHILDYQDEGKVEFFEGNFTEYEEYKKRTLGADALEPKRIKYKRIAK [P0A9W3] | 4.99 ± 0.28 h | 4.99 ± 0.079 h | 5.16 ± 1.3 h | 4.696 ± 0.0076 h | 3.142 ± 0.022 h | 10.3 ± 0.59 h | 4.514 ± 0.025 h | 7.31 ± 0.33 h | 5.748 ± 0.023 h | 11.6 ± 0.28 h | 4.57 ± 0.13 h | 5.61 ± 0.25 h
